From patent US20240092919A1 (Ablynx, published 2024)

T1: Cynomolgus TCR(AEA41865/AEA41866)-zipper protein (cynomolgus)
T1 construct: also called cyTCR-zipper; cyTCR(AEA41865)-zipper
T1 TCR alpha: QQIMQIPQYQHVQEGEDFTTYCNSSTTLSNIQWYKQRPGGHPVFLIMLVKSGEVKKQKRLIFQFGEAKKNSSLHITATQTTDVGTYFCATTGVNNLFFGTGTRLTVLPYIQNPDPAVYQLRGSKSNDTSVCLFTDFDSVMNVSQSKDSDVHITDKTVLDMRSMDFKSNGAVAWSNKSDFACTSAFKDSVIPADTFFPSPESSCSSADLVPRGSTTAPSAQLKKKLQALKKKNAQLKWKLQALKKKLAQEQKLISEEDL
T1 TCR beta: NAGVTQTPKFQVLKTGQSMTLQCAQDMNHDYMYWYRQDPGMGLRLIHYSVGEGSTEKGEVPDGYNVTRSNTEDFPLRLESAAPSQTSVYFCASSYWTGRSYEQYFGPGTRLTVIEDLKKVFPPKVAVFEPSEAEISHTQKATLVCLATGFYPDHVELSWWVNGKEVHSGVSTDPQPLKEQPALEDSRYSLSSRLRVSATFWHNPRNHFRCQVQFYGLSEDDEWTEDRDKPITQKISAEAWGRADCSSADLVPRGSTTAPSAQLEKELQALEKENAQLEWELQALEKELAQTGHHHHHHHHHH

T2: human TCR on primary human T cells (human, UniProt P01848 1-140; P01850 1-176)
T2 construct: whole, on cells; also called human TCRαβ
T2 TCR alpha (looked up): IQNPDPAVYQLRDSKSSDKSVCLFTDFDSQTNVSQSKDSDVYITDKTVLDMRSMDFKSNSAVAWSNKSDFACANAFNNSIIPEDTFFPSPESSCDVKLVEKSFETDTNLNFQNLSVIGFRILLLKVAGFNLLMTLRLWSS
T2 TCR beta (looked up): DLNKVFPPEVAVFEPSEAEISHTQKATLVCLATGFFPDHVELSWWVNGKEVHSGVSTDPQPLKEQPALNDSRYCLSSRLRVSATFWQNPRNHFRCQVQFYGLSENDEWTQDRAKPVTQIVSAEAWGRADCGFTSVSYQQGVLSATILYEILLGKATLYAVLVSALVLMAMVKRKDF


Experiments:
[1] = molecular target: T3, cynomolgus TCR on primary cynomolgus T cells (cynomolgus); assay: flow cytometry competition on primary cynomolgus T cells; competitor Flag-tagged T017000623 at EC30
T3 construct: whole, on cells; also called cyno TCRαβ
Experimental: (§1) T cells (human T cells obtained as described in Example 3 and cyno T cells purchased from LPT laboratory, Germany) were thawed and counted on the day of the assay and diluted to a concentration of 1E+06 cells/mL, before adding 75 μL to the wells of a V-bottom 96-well plate (Greiner, cat no 651180). Cells were washed once with cold FACS buffer, before adding 25 μL Nb and 25 μL competitor to the wells. […] Cells were resuspended and plates were incubated at 4° C. for 90 minutes, after which plates were washed twice in cold FACS buffer. […] Plates were washed twice in cold FACS buffer. […] Plates were washed twice in cold FACS buffer. Cells were resuspended in 55 μL 1/1000 diluted Propidium Iodide (Sigma-Aldrich, cat no P4170) in FACS buffer before acquiring data on the MACSQuant X (Miltenyi biotec).

human GPC3 (recombinant) = molecular target: T4, human GPC3 (recombinant) (human, UniProt P51654 25-559); assay: SPR, ProteOn XPR36; GPC3 captured on anti-His antibody
T4 construct: also called human Glypican-3
Experimental: (§2) Recombinant GPC3 proteins were captured on a GLC Sensor Chip (Biorad) immobilized with THE anti-His antibody (Genscript, cat no ABIN387699) via amine coupling, using EDC and NHS chemistry (running buffer: HBS-EP+, pH7.4). Purified ISVDs were injected for 2 minutes (flow rate 45 μL/min) at different concentrations (between 0.3 nM and 1000 nM) and dissociation was followed for 900 s. Regeneration was performed by injecting 10 mM Glycine-HCl (pH 1.5) for 1 minute (flow rate 45 μL/min). […] Processed sensorgrams were analyzed based on the 1:1 interaction model (Langmuir binding model) using ProteOn Manager 3.1.0 (Version 3.1.0.6) software.

[2] = molecular target: T5, cyno GPC3 (recombinant, in house produced) (cynomolgus, UniProt A0A2K5VK50 24-558); assay: as above
T5 construct: also called cynomolgus Glypican-3
Experimental: as §2

human GPC3 on cells [3] = molecular target: T6, human GPC3 on cells (human, UniProt P51654 25-554); assay: cell-based or functional assay
[4] = molecular target: T1, Cynomolgus …; assay: SPR, ProteOn XPR36; TCR-zipper protein immobilised by amine coupling
Experimental: Purified ISVDs were injected for 2 minutes (flow rate 45 μL/min) at different concentrations (between 0.2 nM and 200 nM) and dissociation was followed for 900 s. Regeneration was performed by injecting 3 M MgCl₂ for 3 minutes (flow rate 90 μL/min). […] Processed sensorgrams were analyzed based on the 1:1 interaction model (Langmuir binding model) using ProteOn Manager 3.1.0 (Version 3.1.0.6) software.

[5] = molecular target: T2, human TCR on primary human T cells; assay: flow cytometry competition on primary human T cells; competitor Flag-tagged T017000624 at EC30
Experimental: as §1

[6] = molecular target: T7, cyno GPC3 on CHO-Flp-In cells (cynomolgus, UniProt A0A2K5VK50 24-553); assay: flow cytometry, binding to CHO-Flp-In cells overexpressing cyno GPC3
T7 construct: whole, on cells; also called CHO cyGPC3

human GPC3 on cells [7] = molecular target: T6, human GPC3 on cells; assay: flow cytometry, binding to CHO-Flp-In cells overexpressing human GPC3
[8] = molecular target: T3, cynomolgus TCR on primary cynomolgus T …; assay: cell-based or functional assay
[9] = molecular target: T2, human TCR on primary human T cells; assay: cell-based or functional assay
human GPC3 on cells [10] = molecular target: T6, human GPC3 on cells; assay: flow cytometry, binding to Huh-7 cells
cyno GPC3 on cells = molecular target: T8, cyno GPC3 on cells (cynomolgus monkey, UniProt A0A2K5VK50 24-553); assay: flow cytometry on cells; lower end, tied by Table 44 to CHO cyGPC3
T8 construct: whole, on cells; also called CHO cyGPC3; CHO-Flp-In cells overexpressing cyno GPC3

human GPC3 on cells [11] = molecular target: T9, human GPC3 on cells (human, UniProt P51654 25-554); assay: flow cytometry on cells; upper end, tied by Table 44 to CHO huGPC3
T9 construct: whole, on cells; also called CHO huGPC3; CHO-Flp-In cells overexpressing human GPC3

IC50 [1] [nM]	Kd (human GPC3 (recombinant)) [nM]	Kd [2] [nM]	IC50 (M) BxPC-3, xCELLigence human TDC assay, E:T 15:1, 60 h (human GPC3 on cells [3]) [M]	IC50 (M) HepG2, xCELLigence human TDC assay, E:T 15:1, 60 h (human GPC3 on cells [3]) [M]	IC50 (M) Huh-7, xCELLigence human TDC assay, E:T 15:1, 60 h (human GPC3 on cells [3]) [M]	IC50 (M) NCI-H23, xCELLigence human TDC assay, E:T 15:1, 60 h (human GPC3 on cells [3]) [M]	IC50 (M) NCI-H661, xCELLigence human TDC assay, E:T 15:1, 60 h (human GPC3 on cells [3]) [M]	Kd [4] [nM]	IC50 [5] [nM]	EC50 [6] [nM]	EC50 (human GPC3 on cells [7]) [nM]	Primary cy T cells IC50 (M), xCELLigence TDC assay on Huh-7, E:T 15:1, 60 h [8] [M]	Primary hu T cells IC50 (M), xCELLigence TDC assay on Huh-7, E:T 15:1, 60 h [9] [M]	EC50 (human GPC3 on cells [10]) [nM]	EC50 (cyno GPC3 on cells) [nM]	EC50 (human GPC3 on cells [11]) [nM]	Binder
250	< 0.0056	< 0.0059	> 1e-07	1.15e-10	1.16e-10	> 1e-07	1.14e-10	5.4	170	1.11	1.82	2.29e-10	7.59e-11	1.25	–	–	A022600424 (other, also called T017000680-5GS-A022600351-9GS-A022600314-9GS-ALB23002-A) DVQLVESGGGVVQPGGSLRLSCVASGYVHKINFYGWYRQAPGKEREKVAHISIGDQTDYADSAKGRFTISRDESKNTVYLQMNSLRPEDTAAYYCRALSRIWPYDYWGQGTLVTVSSGGGGSEVQLVESGGGVVQPGGSLRLSCAASGFTFSSFAMTWVRRPPGKGLEWVATITNKGVTSYADSVKGRFTISRDNAKNTLYLQMNSLRPEDTALYICANARRTGPRAPTDIGSYRGQGTLVTVSSGGGGSGGGSEVQLVESGGGVVQPGGSLRLSCAASGSIFRSVFSSSTMEWYRQAPGKKRELVARIAPGEGTYYGALYADSVKGRFTISRDNAKNTVYLQMNSLRPEDTALYYCASGVAWGQGTLVTVSSGGGGSGGGSEVQLVESGGGVVQPGGSLRLSCAASGFTFRSFGMSWVRQAPGKGPEWVSSISGSGSDTLYADSVKGRFTISRDNSKNTLYLQMNSLRPEDTALYYCTIGGSLSRSSQGTLVTVSSA [A022600424, listing 1 of 2 here]
–	–	–	–	–	–	–	–	–	–	–	–	–	–	–	1 to 2	1 to 2	A022600424 (other, also called T017000680-5GS-A022600351-9GS-A022600314-9GS-ALB23002-A) DVQLVESGGGVVQPGGSLRLSCVASGYVHKINFYGWYRQAPGKEREKVAHISIGDQTDYADSAKGRFTISRDESKNTVYLQMNSLRPEDTAAYYCRALSRIWPYDYWGQGTLVTVSSGGGGSEVQLVESGGGVVQPGGSLRLSCAASGFTFSSFAMTWVRRPPGKGLEWVATITNKGVTSYADSVKGRFTISRDNAKNTLYLQMNSLRPEDTALYICANARRTGPRAPTDIGSYRGQGTLVTVSSGGGGSGGGSEVQLVESGGGVVQPGGSLRLSCAASGSIFRSVFSSSTMEWYRQAPGKKRELVARIAPGEGTYYGALYADSVKGRFTISRDNAKNTVYLQMNSLRPEDTALYYCASGVAWGQGTLVTVSSGGGGSGGGSEVQLVESGGGVVQPGGSLRLSCAASGFTFRSFGMSWVRQAPGKGPEWVSSISGSGSDTLYADSVKGRFTISRDNSKNTLYLQMNSLRPEDTALYYCTIGGSLSRSSQGTLVTVSSA [A022600424, listing 2 of 2 here]
